What was measured:
[1] = molecular target: Botulinum neurotoxin serotype B holotoxin (Clostridium botulinum, UniProt B1INP5;B1INP5 B1INP5:2-441,B1INP5:442-1291)
[2] = molecular target: Botulinum neurotoxin serotype A light chain (50 kD zinc endopeptidase) (Clostridium botulinum, UniProt P0DPI1 P0DPI1:2-448)
[3] = molecular target: Botulinum neurotoxin serotype A holotoxin (Clostridium botulinum, UniProt P0DPI1;P0DPI1 P0DPI1:2-448,P0DPI1:449-1296)
[4] = molecular target: Botulinum neurotoxin serotype B light chain (Clostridium botulinum, UniProt B1INP5 B1INP5:2-441)
Sequence of Botulinum neurotoxin serotype B light chain (B1INP5 2-441, one chain of several): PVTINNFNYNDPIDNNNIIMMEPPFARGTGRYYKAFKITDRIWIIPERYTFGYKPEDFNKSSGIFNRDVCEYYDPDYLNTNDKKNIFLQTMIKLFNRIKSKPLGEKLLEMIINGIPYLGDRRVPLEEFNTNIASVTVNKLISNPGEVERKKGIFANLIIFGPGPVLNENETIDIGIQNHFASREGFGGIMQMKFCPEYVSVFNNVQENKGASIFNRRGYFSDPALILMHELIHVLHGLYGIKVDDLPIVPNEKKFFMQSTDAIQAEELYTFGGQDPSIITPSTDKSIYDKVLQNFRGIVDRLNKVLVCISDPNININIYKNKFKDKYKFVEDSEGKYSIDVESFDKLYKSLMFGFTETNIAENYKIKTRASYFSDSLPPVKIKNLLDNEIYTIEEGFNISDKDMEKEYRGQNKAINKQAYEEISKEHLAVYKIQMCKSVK

Measured: binding result

Sequence of Botulinum neurotoxin serotype B holotoxin (B1INP5 2-441, chain 1 of 2): as the sequence (B1INP5 2-441, one chain of several) above
Sequence of Botulinum neurotoxin serotype B holotoxin (B1INP5 442-1291, chain 2 of 2): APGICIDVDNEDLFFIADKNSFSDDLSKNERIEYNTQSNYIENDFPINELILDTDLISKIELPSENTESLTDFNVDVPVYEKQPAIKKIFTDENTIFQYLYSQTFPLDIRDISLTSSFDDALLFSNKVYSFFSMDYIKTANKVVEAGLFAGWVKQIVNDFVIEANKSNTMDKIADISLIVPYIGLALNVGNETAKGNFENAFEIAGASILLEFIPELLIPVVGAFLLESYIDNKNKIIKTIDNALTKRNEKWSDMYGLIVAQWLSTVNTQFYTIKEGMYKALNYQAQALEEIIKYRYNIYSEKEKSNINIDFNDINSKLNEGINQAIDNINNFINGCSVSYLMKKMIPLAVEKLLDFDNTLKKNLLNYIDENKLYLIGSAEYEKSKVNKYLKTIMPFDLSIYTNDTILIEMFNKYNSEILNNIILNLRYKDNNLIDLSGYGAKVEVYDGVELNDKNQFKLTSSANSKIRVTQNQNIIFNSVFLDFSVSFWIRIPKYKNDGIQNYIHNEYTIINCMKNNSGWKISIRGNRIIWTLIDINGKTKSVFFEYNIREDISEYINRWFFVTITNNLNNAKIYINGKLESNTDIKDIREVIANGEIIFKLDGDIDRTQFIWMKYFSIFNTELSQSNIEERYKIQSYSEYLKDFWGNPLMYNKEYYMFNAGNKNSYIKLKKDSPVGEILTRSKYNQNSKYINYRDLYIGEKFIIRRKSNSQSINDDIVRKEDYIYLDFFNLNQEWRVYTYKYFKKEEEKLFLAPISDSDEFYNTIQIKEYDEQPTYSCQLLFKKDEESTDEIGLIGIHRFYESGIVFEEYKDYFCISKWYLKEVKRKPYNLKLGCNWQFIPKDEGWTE
Sequence of Botulinum neurotoxin serotype A light chain (50 kD zinc endopeptidase) (P0DPI1 2-448, one chain of several): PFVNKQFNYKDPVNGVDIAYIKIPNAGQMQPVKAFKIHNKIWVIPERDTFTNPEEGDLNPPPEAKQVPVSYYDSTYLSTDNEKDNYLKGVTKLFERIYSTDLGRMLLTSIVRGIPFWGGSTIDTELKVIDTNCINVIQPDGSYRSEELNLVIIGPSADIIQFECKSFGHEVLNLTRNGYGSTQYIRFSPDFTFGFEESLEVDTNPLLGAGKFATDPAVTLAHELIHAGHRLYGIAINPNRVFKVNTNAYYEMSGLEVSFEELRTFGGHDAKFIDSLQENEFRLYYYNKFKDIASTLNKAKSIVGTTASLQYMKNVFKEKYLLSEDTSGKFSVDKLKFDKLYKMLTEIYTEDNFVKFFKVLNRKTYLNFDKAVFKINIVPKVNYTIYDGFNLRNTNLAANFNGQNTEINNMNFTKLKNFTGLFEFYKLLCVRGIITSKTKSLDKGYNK
Sequence of Botulinum neurotoxin serotype A holotoxin (P0DPI1 2-448, chain 1 of 2): as the sequence (P0DPI1 2-448, one chain of several) above
Sequence of Botulinum neurotoxin serotype A holotoxin (P0DPI1 449-1296, chain 2 of 2): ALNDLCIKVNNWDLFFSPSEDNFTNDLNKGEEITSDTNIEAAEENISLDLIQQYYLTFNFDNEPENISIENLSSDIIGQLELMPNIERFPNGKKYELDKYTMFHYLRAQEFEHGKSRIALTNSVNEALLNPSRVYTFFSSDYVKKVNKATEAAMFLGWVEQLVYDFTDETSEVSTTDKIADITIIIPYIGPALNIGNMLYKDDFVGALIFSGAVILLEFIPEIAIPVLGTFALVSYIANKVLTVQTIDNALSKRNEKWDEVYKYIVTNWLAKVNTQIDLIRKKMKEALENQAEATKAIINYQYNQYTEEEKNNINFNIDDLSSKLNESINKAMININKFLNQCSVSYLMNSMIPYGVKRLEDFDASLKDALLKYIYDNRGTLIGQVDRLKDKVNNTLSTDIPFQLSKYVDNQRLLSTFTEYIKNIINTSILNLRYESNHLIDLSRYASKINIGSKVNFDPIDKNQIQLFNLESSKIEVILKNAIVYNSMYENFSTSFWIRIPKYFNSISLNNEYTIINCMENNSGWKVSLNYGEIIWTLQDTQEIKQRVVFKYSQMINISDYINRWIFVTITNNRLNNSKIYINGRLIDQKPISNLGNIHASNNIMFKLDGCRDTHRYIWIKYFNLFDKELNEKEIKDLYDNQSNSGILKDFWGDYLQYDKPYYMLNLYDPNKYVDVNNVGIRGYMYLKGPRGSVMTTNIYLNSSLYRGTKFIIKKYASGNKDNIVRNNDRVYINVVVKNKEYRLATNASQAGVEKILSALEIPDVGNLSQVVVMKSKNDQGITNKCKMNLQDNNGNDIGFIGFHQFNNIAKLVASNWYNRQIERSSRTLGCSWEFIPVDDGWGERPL

B1: BoNT A/B LC aptamer (ssDNA)
DNA: CATCCGTCACACCTGCTCTGATCAGGGAAGACGCCAACACTGGTGTTGGCTCCCGTATCA
binds: [1] | [2] | [3] | [4]

B2: BoNT A/B HT aptamer (ssDNA)
DNA: CATCCGTCACACCTGCTCTGCTATCACATGCCTGCTGAAGTGGTGTTGGCTCCCGTATCA
binds: [1] | [2] | [4]
